± gives the standard deviation of the averaged measurements.
tested on: Saccharomyces cerevisiae; experiment: protein stability index of tFT-peptide fusion (C-terminal peptide) (PSI (0-1 scale)); higher = more stable (slower turnover); conditions: genetic background: wild type; temperature: 30 C
Method: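 Multiplexed protein stability (MPS) profiling in S. cerevisiae. Random 12-aa peptides (tFT-X12 library) are fused to the C-terminus of a sfGFP-mCherry tandem fluorescent timer, after mCherry and a GGGS linker. Cells are FACS-sorted into 8 mCherry/sfGFP bins and deep-sequenced. The protein stability index (PSI) is the read-weighted bin average, scaled from 0 (unstable) to 1 (stable). Only peptides with >10 reads are reported; cells were grown at 30 °C in SC-His with glucose.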
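Also: PSI is a weighted mean of sequencing reads over stability bins, variants kept only with over 10 reads, mCherry proximal and sfGFP distal, peptide attached via GGGS linker.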

EAQWRGVRHHSR and RHGTRHKLLGTL are within error of each other in protein stability index: 0.641 ± 0.036 for the first, 0.659 ± 0.016 for the second.

VPPPLRLWPLPV and NASASTLPFPLD are within error of each other in protein stability index: 0.618 ± 0.076 for the first, 0.71 ± 0.054 for the second.

IGFNVEIRKGMG and NRYKIKKKIERR are within error of each other in protein stability index: 0.605 ± 0.082 for the first, 0.6 ± 0.039 for the second.

Compared with VGKGALHCLPDL, AWNRFVNPRVWS is lower in protein stability index: 0.713 ± 0.0015 for the first, 0.677 ± 0.03 for the second.

ENNWILSIKEKT and RGATAKGQRRVR are within error of each other in protein stability index: 0.747 ± 0.02 for the first, 0.686 ± 0.046 for the second.

VRDRVLFVARGG and WFNAGAGDLGSV are within error of each other in protein stability index: 0.6996 ± 0.00075 for the first, 0.709 ± 0.033 for the second.

PRRPAPSPLPTP and NPPELPVTENNP are within error of each other in protein stability index: 0.718 ± 0.2 for the first, 0.821 ± 0.17 for the second.

Going from HIYHIRFANKRG to SRGWCGRVVWGK, the protein stability index rises from 0.657 ± 0.013 to 0.729 ± 0.01.

LVVEAIRSRAFK and PPLPLPLPPPTP are within error of each other in protein stability index: 0.6919 ± 0.0028 for the first, 0.767 ± 0.088 for the second.

HGLLDPLSILLY and PFGDRSGLCVSV are within error of each other in protein stability index: 0.668 ± 0.013 for the first, 0.653 ± 0.017 for the second.

First: SLFSFLPRLYSH
Second: LFVHTPCPFEVR
The protein stability index of the first is lower: 0.627 ± 0.023 for the first, 0.673 ± 0.023 for the second.

First: PPPPPIPPPLVP
Second: FSFPAPRGLLWV
The protein stability index of the first is higher: 0.658 ± 0.012 for the first, 0.547 ± 0.027 for the second.

DWYSGVTYGPCS and NPPSRLPRLPLH are within error of each other in protein stability index: 0.78 ± 0.062 for the first, 0.728 ± 0.043 for the second.

Compared with SRLSPPFPLFSL, AKLDMARGGGVV is higher in protein stability index: 0.505 ± 0.036 for the first, 0.645 ± 0.018 for the second.

QFEEFKRGFEVA and KNGQGQRKIPGK are within error of each other in protein stability index: 0.722 ± 0.024 for the first, 0.721 ± 0.023 for the second.

LWRVRCGLGMSG and CLFIAGGSDLSH are within error of each other in protein stability index: 0.681 ± 0.15 for the first, 0.7 ± 0.039 for the second.

PGVFEITPVMLI and LIPLVFAPSLVL are within error of each other in protein stability index: 0.6949 ± 0.0055 for the first, 0.769 ± 0.093 for the second.

WAGGSGRRIGCR and SPPRHPPPASPA are within error of each other in protein stability index: 0.712 ± 0.0089 for the first, 0.7128 ± 0.0035 for the second.

PLPSSRSPSPPS and CLESKTGYEVMG are within error of each other in protein stability index: 0.711 ± 0.038 for the first, 0.7065 ± 0.0052 for the second.

Compared with LSSCLFDPIFLF, PSLNNTMLKENK is lower in protein stability index: 0.783 ± 0.018 for the first, 0.62 ± 0.061 for the second.

PLPCPRGHDHPA and HTPPMVGMLCLG are within error of each other in protein stability index: 0.688 ± 0.068 for the first, 0.6 ± 0.032 for the second.

First: GTWSVYSEKFVG
Second: PPPSPNPRENPK
The protein stability index of the first is lower: 0.652 ± 0.0081 for the first, 0.671 ± 0.0071 for the second.

VGGGKRILVPRS and KKKKNKKKKKPK are within error of each other in protein stability index: 0.691 ± 0.12 for the first, 0.615 ± 0.041 for the second.

GAVSVVFGWTDV and ERSVSDSHERID are within error of each other in protein stability index: 0.672 ± 0.021 for the first, 0.678 ± 0.05 for the second.

Compared with TLPSHPRLLSLH, KHRIEYQEKNTF is lower in protein stability index: 0.6965 ± 0.0013 for the first, 0.67 ± 0.019 for the second.

First: PPPLPTPSLPPP
Second: IWGLSSLYGCGW
The protein stability index of the first is lower: 0.70185 ± 0.00011 for the first, 0.728 ± 0.011 for the second.

RSPTRHAPPRPV and GKKKHRSNPRRS are within error of each other in protein stability index: 0.639 ± 0.095 for the first, 0.725 ± 0.067 for the second.

ANRLNASYQVSD and TNSQTKKKINKI are within error of each other in protein stability index: 0.6982 ± 0.0038 for the first, 0.661 ± 0.038 for the second.

GGGVLLRGGSGP and PPSRPLPFLLPH are within error of each other in protein stability index: 0.716 ± 0.053 for the first, 0.696 ± 0.0091 for the second.

GPPPPPPPRPPP and LHPPHPPPSPPP are within error of each other in protein stability index: 0.634 ± 0.007 for the first, 0.626 ± 0.1 for the second.

GCGGLCQGGGGW and SPSCSLLCPLPR are within error of each other in protein stability index: 0.704 ± 0.084 for the first, 0.72 ± 0.028 for the second.

TASRSSRADERA and VQWTEFYWVRKG are within error of each other in protein stability index: 0.591 ± 0.033 for the first, 0.575 ± 0.037 for the second.

LPRLSPSPRPSR and WVNRFVFFSPST are within error of each other in protein stability index: 0.719 ± 0.008 for the first, 0.615 ± 0.11 for the second.

PPRPPSPPPPPS and STSSNGVGLPRL are within error of each other in protein stability index: 0.779 ± 0.16 for the first, 0.901 ± 0.11 for the second.

Going from SGSFAIYCSVSF to GSHGRLSWHVSR, the protein stability index rises from 0.611 ± 0.045 to 0.7008 ± 0.00074.

ELVRIVREEYRC and GRPSSMCTGWKV are within error of each other in protein stability index: 0.685 ± 0.1 for the first, 0.74 ± 0.054 for the second.

With PPLPPLPPLSVS the protein stability index was 0.675 ± 0.029.
